This note sets out measurements from publication PMC9381089 (Molecular Cancer Therapeutics, 2022).

The target of experiment [1] is cynomolgus monkey SEZ6, ectopically expressed on 293T cells (Macaca fascicularis, UniProt A0A2K5WPJ4). In words: flow cytometry on cells.
Experiment [2] has as its target murine SEZ6, ectopically expressed on 293T cells (Mus musculus (Mouse)., UniProt Q7TSK2). As to the kind of experiment: flow cytometry on cells.

murine SEZ6, ectopically expressed on 293T cells, sequence (Q7TSK2 20-991): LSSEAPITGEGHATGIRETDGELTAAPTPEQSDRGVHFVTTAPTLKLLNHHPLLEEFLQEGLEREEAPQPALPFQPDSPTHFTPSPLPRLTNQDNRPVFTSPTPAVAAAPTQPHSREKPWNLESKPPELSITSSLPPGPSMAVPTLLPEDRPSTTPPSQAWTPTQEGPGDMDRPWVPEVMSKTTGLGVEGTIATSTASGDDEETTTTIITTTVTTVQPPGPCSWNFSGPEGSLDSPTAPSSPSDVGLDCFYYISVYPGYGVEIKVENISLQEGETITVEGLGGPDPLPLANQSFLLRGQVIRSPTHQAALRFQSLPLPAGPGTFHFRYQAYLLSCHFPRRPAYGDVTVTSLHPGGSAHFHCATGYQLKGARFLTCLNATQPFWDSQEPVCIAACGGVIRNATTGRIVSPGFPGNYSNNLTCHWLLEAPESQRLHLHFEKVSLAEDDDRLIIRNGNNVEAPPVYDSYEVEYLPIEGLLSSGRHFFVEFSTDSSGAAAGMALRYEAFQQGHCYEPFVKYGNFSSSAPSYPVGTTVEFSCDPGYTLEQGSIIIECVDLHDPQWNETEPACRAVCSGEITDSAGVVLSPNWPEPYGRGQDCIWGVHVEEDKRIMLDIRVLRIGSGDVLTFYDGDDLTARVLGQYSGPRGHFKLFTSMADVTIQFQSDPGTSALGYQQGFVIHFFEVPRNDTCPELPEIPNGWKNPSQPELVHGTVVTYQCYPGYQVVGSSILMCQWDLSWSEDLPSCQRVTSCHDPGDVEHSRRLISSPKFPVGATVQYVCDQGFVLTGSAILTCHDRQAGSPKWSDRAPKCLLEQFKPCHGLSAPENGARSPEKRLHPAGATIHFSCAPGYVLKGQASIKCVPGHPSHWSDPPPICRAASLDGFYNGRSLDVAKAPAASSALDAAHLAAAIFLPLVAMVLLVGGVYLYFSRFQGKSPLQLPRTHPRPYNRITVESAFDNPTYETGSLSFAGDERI

B1: ABBV-011 (SC17 conjugated to the calicheamicin linker drug LD19.10) (antibody, V domains shown)
VH: EVQLVQSGAEVKKPGESLKISCKGSGYSFTSSWINWVRQMPGKGLEWMGRIYPGEGDTNYSGNFEGQVTISADKSISTAYLQWSSLKASDTAMYYCTRGLVMDYWGQGTLVTVSS
VL: EIVLTQSPATLSLSPGERATLSCRASQSVDYNGISYMHWYQQKPGQAPRLLIYAASNVQSGIPARFSGSGSGTDFTLTISSLEPEDFAVYYCQQSIEDPPTFGGGTKVEIK
As for B1, the binding result in experiment [1] and in experiment [2] was “binds” in each case.

B2: SC17, humanized anti-SEZ6 monoclonal antibody (antibody, V domains shown)
VH: B1 VH
VL: B1 VL
On to B2, for which, in experiment [1], the binding result is reported as “binds”.
